In experiment [1] the target is S-R (SARS-CoV-2 S protein trimer, furin site deleted to a single arginine) (SARS-CoV-2). The experiment can be described thus: negative stain EM.
In experiment [2] the target is S-R/PP (SARS-CoV-2 S protein trimer, furin site deleted to a single arginine, two stabilizing prolines) (SARS-CoV-2). Description: negative stain EM.

Consider two substances from publication doi:10.1101/2021.01.14.426695.

A word on the stoichiometry N: it is a count of units in the complex or per binding partner.

In experiment [1], “S-R (SARS-CoV-2 S protein trimer, furin site deleted to a single arginine)” showed a stoichiometry N of 3.

For the substance “S-R/PP (SARS-CoV-2 S protein trimer, furin site deleted to a single arginine, two stabilizing prolines)”, the stoichiometry N in experiment [2] was found to be 3.
